Experimental data taken from EP4467153A1, “CONSTRAINED PEPTIDE INHIBITORS OF LRRK2-FADD INTERACTIONS” (University of Georgia Research Foundation, Inc., priority 2023, dated 2024).
“Also recorded” adds a separate entry of the source. Positions of bridges follow the written chain, without caps; N, C: chain ends. Non-standard residues stand in square brackets, D forms with d. Primed or numbered codes have the meaning given here. FAM = 5(6)-carboxyfluorescein label; S5 = C=CCCC[C@](C)(N)C(=O)O; PEG3′ = PEG3 spacer

What was measured:
[1] = test system: primary cortical neurons; test: Uptake of FAM-labeled peptide in primary cortical neurons (confocal imaging); assay type: cell-based, mouse; conditions: neurons expressing G2019S-LRRK2, 1 µM
[2] = target: T1, R1441C-LRRK2 (Homo sapiens, UniProt Q5S007, R1441C); test: LRRK2 kinase function in HEK293T cells over-expressing R1441C-LRRK2, endogenous Rab10 (western blot); assay type: cell-based; conditions: increasing doses of peptide
T1 construct: expressed in transfected cells; host or cells: HEK293T
T1 sequence (Q5S007 whole entry R1441C): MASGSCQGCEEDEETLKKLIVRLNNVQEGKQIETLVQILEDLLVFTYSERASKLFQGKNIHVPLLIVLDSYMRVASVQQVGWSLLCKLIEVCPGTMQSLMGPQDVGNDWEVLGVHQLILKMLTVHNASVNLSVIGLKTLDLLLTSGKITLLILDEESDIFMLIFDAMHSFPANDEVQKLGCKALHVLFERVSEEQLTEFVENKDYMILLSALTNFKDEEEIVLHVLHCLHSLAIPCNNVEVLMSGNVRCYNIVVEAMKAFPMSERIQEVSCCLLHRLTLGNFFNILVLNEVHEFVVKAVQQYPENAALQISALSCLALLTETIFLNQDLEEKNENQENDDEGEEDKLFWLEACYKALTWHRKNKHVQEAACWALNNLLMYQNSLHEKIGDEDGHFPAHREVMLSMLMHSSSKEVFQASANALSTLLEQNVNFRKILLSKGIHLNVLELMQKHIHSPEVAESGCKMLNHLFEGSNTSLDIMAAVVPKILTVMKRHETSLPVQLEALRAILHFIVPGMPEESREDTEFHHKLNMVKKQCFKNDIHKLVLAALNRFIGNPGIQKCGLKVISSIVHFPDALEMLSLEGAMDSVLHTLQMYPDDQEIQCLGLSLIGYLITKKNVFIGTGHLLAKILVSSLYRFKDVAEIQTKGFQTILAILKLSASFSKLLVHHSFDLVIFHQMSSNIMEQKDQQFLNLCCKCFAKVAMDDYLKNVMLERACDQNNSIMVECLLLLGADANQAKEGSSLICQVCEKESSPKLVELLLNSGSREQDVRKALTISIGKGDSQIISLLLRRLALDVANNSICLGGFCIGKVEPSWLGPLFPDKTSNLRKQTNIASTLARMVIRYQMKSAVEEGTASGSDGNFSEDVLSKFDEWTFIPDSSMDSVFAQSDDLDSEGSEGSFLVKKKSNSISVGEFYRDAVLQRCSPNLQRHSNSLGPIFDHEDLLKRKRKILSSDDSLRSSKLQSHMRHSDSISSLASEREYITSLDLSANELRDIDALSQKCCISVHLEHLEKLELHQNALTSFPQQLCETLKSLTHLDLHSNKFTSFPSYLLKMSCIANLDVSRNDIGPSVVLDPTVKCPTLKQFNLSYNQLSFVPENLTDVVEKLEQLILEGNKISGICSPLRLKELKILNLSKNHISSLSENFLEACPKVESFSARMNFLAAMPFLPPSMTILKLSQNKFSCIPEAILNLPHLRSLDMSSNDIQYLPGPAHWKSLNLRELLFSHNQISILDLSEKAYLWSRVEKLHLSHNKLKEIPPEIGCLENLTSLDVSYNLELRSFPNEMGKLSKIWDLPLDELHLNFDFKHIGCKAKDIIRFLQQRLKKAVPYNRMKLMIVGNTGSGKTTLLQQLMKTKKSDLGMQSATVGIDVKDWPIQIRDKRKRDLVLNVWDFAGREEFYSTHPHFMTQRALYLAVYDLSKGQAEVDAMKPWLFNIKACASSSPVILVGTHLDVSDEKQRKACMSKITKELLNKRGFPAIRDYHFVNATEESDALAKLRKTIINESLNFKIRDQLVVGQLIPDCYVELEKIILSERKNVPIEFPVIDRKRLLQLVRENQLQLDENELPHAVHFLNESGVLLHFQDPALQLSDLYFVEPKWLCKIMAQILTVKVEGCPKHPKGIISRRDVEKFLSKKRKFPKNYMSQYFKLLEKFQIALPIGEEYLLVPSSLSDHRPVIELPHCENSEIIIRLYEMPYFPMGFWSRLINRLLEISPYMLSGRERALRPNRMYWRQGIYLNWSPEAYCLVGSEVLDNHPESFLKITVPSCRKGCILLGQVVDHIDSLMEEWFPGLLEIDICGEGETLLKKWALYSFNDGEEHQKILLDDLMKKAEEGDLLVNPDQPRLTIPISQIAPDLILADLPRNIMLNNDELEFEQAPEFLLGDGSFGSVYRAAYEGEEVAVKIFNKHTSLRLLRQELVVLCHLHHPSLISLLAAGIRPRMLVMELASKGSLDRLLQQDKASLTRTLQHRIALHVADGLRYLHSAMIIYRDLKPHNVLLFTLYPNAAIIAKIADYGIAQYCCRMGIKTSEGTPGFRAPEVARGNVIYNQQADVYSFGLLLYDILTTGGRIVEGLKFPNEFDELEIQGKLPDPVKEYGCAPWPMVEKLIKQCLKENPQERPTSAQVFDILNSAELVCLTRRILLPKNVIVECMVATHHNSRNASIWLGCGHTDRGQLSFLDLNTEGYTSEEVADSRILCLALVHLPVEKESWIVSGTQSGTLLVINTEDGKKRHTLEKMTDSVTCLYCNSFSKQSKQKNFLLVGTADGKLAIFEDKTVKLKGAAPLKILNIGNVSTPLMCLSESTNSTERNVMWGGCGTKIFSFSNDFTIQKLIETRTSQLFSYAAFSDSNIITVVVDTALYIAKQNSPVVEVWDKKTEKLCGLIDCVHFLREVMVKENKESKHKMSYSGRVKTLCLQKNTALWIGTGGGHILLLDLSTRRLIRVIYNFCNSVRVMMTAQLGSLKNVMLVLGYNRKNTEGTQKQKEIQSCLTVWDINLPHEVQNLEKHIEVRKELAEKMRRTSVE
Procedure: (§1) Assessment of LRRK2 kinase function. To determine whether peptides targeting the LRRK2-FADD PPI could also alter kinase function, LRRK2 activity was assessed in a cellular setting, through the phosphorylation of an endogenous substrate (pT73-Rab10), as well as auto-phosphorylation (pS1292-LRRK2). […] Parallel cultures were transfected with only WT or R1441C-LRRK2; and endogenous levels of phosphorylated RablO were assessed. Following 72hr of total expression, the cells were washed in cold PBS and collected. Cell lysis was performed using the following buffer: 50mM Tris HCl, pH 7.5; 1mM EGTA; 0.27 M sucrose; 1% Triton X-100; supplemented with protease and phosphatase inhibitor cocktails, and cell extracts stored at -80°C until use. The extracts were separated by SDS-PAGE and proteins transferred to nitrocellulose membranes, which were probed for total/pS1292-LRRK2, total/pT73-Rab10, or β-actin. For quantification, the band intensities for phosphorylated Rab 10 or LRRK2 were normalized to total expression of the respective protein.

[3] = target: T2, G2019S-LRRK2 (Homo sapiens, UniProt Q5S007, G2019S); test: LRRK2 kinase function in HEK293T cells co-transfected with G2019S-LRRK2 and Flag-Rab10 (western blot); assay type: cell-based; conditions: G2019S-LRRK2 + Rab10, peptide at indicated concentrations, 24hr
T2 construct: expressed in transfected cells; host or cells: HEK293T
T2 sequence (Q5S007 whole entry G2019S): as the sequence (Q5S007 whole entry R1441C) above, with C1441R, G2019S counted along it
Procedure: Since the peptides were designed to block LRRK2 from interacting with FADD, they should not have any effect on the catalytic kinase activity of LRRK2. To determine whether the PPI-disrupting FARMS peptide alters LRRK2 kinase activity in cells, HEK293T cells were co-transfected with WT or G019S-LRRK2 together with Rab10. Cells over-expressing mutant LRRK2 and human WT RablO were treated with FARMS and the cell extracts were probed for multiple indices of LRRK2 kinase activity including phosphorylated Rab10 and pS1292-LRRK2.
as §1, with “The extracts were separated by SDS-PAGE and proteins transferred to nitrocellulose membranes, which were probed for total/pS1292-LRRK2, total/pT73-Rab10, or β-actin.” left out

[4] = target: T3, LRRK2-FADD PPI (Flag G2019S-LRRK2 and V5-FADD) (Homo sapiens, UniProt Q5S007, G2019S); test: Co-immunoprecipitation of LRRK2-FADD interaction in transfected HEK293T cells; assay type: cell-based
T3 construct: expressed in transfected cells; host or cells: HEK293T
T3 sequence (Q5S007 whole entry G2019S): as the sequence (Q5S007 whole entry R1441C) above, with C1441R, G2019S counted along it
Procedure: It was then assessed whether this peptide library (FARM1-FARM5) could disrupt the interaction between over-expressed Flag G2019S-LRRK2 and V5-FADD by co-immunoprecipitation. Flag-LRRK2 was purified on anti-Flag resin and the eluate as well as the protein extract (input) separated by SDS-PAGE, with the membranes probed for V5 (FADD) and Flag (LRRK2). The transfected cells were treated with the indicated peptide (10 µM) for a total of 48 hr prior to collection. […] To minimize the use of primary mouse cortical neuron cultures, FARMS was used in subsequent experiments to examine the potential neuroprotective effects of LRRK2-FADD disruption.
Assessment of LRRK2-FADD interaction. Co-immunoprecipitation was undertaken to determine the effects of the stapled peptides on the LRRK2-FADD PPI, as previously described. Briefly, 10cm plates of HEK293T cells transiently expressing Flag-WT or mutant LRRK2 and V5-FADD (at a 3:1 ratio), and treated with different concentrations of FARM peptides (as indicated in the Figure legends), were washed in PBS and lysed in co-IP buffer (20mM HEPES, pH7.4; 150 mM NaCl; 0.1% NP40; 2 mM EGTA; 2 mM MgCl2; 10% glycerol, pH 7.2; protease and phosphatase cocktail [Agilent Technologies]) for 30 min on ice followed by 15 strokes with a Dounce glass homogenizer, and centrifugation at 13000 rpm for 15 min to remove cellular debris. Following pre-clearing with IgG-coupled beads, 40 µl of washed anti-Flag resin (Sigma-Aldrich) per mg of protein was added and the samples incubated under rotation overnight at 4°C. The following morning, the beads were centrifuged and washed a total of 5X with coIP buffer, before elution in 2X SDS sample buffer at 95°C for 10 min. The eluate (and input) was separated by SDS-PAGE and membranes probed with anti-Flag (LRRK2) and V5 (FADD).

## FARM5: FAM-labeled hydrocarbon-stapled FADD Armadillo domain peptide; mass fits SEQ ID NO. 6 KVADLVQEVQQAXDLQXRSK ({FAM-PEG3′}-KVADLVQEVQQA[S5]DLQ[S5]RSK-NH2; staple 13-17; also: FAM label, optionally 5(6)FAM-PEG3 on N-terminal lysine) [FAM-labeled hydrocarbon-stapled FADD Armadillo domain peptide; 6 …XDLQXRSK]
[1]
  fluorescent signal from the FAM peptide tag in neurons: diffusely distributed throughout most neurons
[2]
  phosphorylation of endogenous Rab10 (pT73) by R1441C-LRRK2: un-affected
[3]
  phosphorylation of over-expressed Rab10 (pT73): unexpected increase
[3]; listed as FARMS
  auto-phosphorylation of LRRK2 at Ser1292 (pS1292-LRRK2): any loss in phosphorylation of pS1292-LRRK2 or RablO could be detected; also recorded: un-affected
[4]; 10 µM, 48 hr, normalized to immunoprecipitated Flag-LRRK2, listed as FARMS
  amount of FADD that co-purified with G2019S-LRRK2 (LRRK2-FADD interaction): greatest, and most consistent, reduction; also recorded: reduced the interaction between LRRK2 and FADD
[4]; 0.1 to 10 µM, 24hr
  dose-dependency of the disruption of the LRRK2-FADD PPI: progressive reduction in the LRRK2-FADD PPI with increasing doses
